Results reported in patent US20110092448A1, “Peptide Conjugate for Oral Delivery of Hydrophilic Peptide Analgesics” (METABOLIC PHARMACEUTICALS LIMITED, priority 2005, published 2011).
Where two headings read alike, the source gives them in different places.

Experiments:
[1] = cited from earlier work
[2] = test system: STZ diabetic Sprague-Dawley rats with neuropathic pain; details: rat, in vivo, po
[3] = Blood (serum) calcium levels in normal mice after EP-PTH; type: in vivo, mouse; details: mouse, serum; CD-1 mice, oral vs subcutaneous; read-out: oral bioavailability based on pharmacodynamic measurements
Experimental: (§1) EP-PTH was administered orally to normal mice and the anabolic action on blood calcium levels were measured. More specifically, after an initial blood sampling at time zero, groups of normal CD-1 mice were administered EP-PTH via either oral gavage (40 μg/kg, 200 μg/kg or 400 μg/kg) or subcutaneous injection (40 μg/kg) as described in Example 3. One hour after the administration of the EP-PTH and a second blood sample was taken. The serum calcium levels of blood samples were then assessed by an enzymatic method.
(§2) The person skilled in the art will understand that the method of estimating oral availability by identifying an oral dose response curve in a pharmacodynamic animal experiment and comparing with the parenterally administered dose response curve may be used in assessing the application of the invention to other parent peptides.

[4] = test system: blood calcium levels in normal CD-1 mice; test: as above; type: in vivo, mouse; details: oral gavage 40, 200 or 400 μg/kg, 1 h
Experimental: as §1, §2

Q: With “parathyroid hormone: hormone known to regulate levels of blood calcium; parent peptide of EP-PTH” as the compound, how does the oral bioavailability ([1]; reported) read?
A: about 0.3%

Q: Which oral availability [2] does the source give for “Tyr-Leu-Arg-Ile-Val-Gly-Cys-Cys-Ser-Asp-Pro-Arg-Cys-Asn-Tyr-Asp-His-Pro-Glu-Ile-Cys-NH2 [ACV3.2]” here?
A: substantial oral availability

Q: What about the “analgesic effect vs vehicle group” value ([2]; 1 mg/kg) of the same compound?
A: significant difference

Q: For `CC[C@H](C)[C@H](NC(=O)[C@H](CCC(=O)O)NC(=O)[C@H](CO)NC(=O)[C@@H](NC(=O)[C@H](CO)NC(=O)[C@H](CCC(N)=O)NC(=O)[C@@H](NC(=O)[C@@H](NC(=O)[C@H](CCCNC(=N)N)NC(=O)[C@@H](N)CC(C)C)[C@@H](C)CC)C(C)C)C(C)C)C(=O)N[C@@H](CCC(N)=O)C(=O)N[C@@H](CC(C)C)C(=O)N[C@@H](CCSC)C(=O)N[C@@H](Cc1c[nH]cn1)C(=O)N[C@@H](CC(N)=O)C(=O)N[C@@H](CC(C)C)C(=O)NCC(=O)N[C@@H](CCCCN)C(=O)N[C@@H](Cc1c[nH]cn1)C(=O)N[C@@H](CC(C)C)C(=O)N[C@@H](CC(N)=O)C(=O)N[C@@H](CO)C(=O)N[C@@H](CCSC)C(=O)N[C@@H](CCC(=O)O)C(=O)N[C@@H](CCCNC(=N)N)C(=O)N[C@H](C(=O)N[C@@H](CCC(=O)O)C(=O)N[C@@H](Cc1c[nH]c2ccccc12)C(=O)N[C@@H](CC(C)C)C(=O)N[C@@H](CCCNC(=N)N)C(=O)N[C@@H](CCCCN)C(=O)N[C@@H](CCCCN)C(=O)N[C@@H](CC(C)C)C(=O)N[C@@H](CCC(N)=O)C(=O)N[C@@H](CC(=O)O)C(=O)N[C@H](C(=O)N[C@@H](Cc1c[nH]cn1)C(=O)N[C@@H](CC(N)=O)C(=O)N[C@@H](Cc1ccccc1)C(=O)O)C(C)C)C(C)C` [EP-PTH], which bioavailability [3] is on record?
A: ~10%

Q: And the “effect on blood calcium levels compared to vehicle control” value [4]?
A: dose-dependent effect

Q: With “AOD9604: AOD peptide derived from the C-terminal sequence of human growth hormone, earlier applications (YLRIVQCRSVEGSCGF)” as the compound, how does the oral bioavailability ([1]; earlier applications PCT/AU98/00724, PCT/AU01/00354, PCT/AU00/01362) read?
A: substantially orally bioavailable
